From patent US20160272693A1 (ZEALAND PHARMA A S, published 2016) come the findings set out here.

For the assay, the target named is T1, human amylin receptor 3 (hAMYR3), hCTR2 co-expressed with human receptor activity modifying protein 3 (hRAMP3) (human, UniProt P30988 25-474; O60896 24-148).
T1 sequence (looked up) 1: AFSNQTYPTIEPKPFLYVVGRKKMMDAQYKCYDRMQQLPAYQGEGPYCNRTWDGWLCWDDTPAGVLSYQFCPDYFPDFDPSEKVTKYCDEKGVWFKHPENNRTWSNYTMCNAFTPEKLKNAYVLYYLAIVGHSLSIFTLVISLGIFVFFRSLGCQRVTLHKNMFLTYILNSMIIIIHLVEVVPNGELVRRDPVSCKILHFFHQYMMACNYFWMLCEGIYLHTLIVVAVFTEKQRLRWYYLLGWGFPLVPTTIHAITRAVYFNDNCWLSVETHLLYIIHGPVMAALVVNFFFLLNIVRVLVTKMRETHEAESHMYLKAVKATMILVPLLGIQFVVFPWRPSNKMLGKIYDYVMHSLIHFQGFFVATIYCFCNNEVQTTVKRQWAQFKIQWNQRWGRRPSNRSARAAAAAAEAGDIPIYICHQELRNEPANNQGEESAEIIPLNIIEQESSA
T1 sequence (looked up) 2: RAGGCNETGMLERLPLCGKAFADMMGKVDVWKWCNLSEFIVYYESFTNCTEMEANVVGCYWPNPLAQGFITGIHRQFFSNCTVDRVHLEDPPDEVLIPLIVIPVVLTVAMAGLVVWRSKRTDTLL
Kind of assay: cell-based or functional assay.

*1 amine or outer side, *2 acyl side, *3 side chain or, on linkers, in order; H or OH if unused. Bridges are numbered along the chain shown (N, C = ends). [ ]: non-standard residue; d: D form. The star is where a group is joined. C20 diacid = O=C(O)CCCCCCCCCCCCCCCCCCC(=O)*; γGlu = O=C(O)[C@H](CCC(=O)[*:2])N[*:1]; Hyp = O=C(O)[C@@H]1C[C@@H](O)CN1; NMeI = CC[C@H](C)[C@H](NC)C(=O)O; Aad = N[C@@H](CCCC(=O)O)C(=O)O; Sar = CNCC(=O)O

B1: [19CD]-isoGlu-R-C( )-QTAT-C( )-ATERLA-Aad-FLQRSSF-Gly(Me)-A-Ile(Me)-LSSTEVGSNTP-NH2 (Compd. 93) (peptide)
peptide: {C20 diacid}-[γGlu]RCQTATCATERLA[Aad]FLQRSSF[Sar]A[NMeI]LSSTEVGSNTP-NH2
modifications: disulfide 3-8
SMILES: CC[C@H](C)[C@@H](C(=O)N[C@@H](CC(C)C)C(=O)N[C@@H](CO)C(=O)N[C@@H](CO)C(=O)N[C@H](C(=O)N[C@@H](CCC(=O)O)C(=O)N[C@H](C(=O)NCC(=O)N[C@@H](CO)C(=O)N[C@@H](CC(N)=O)C(=O)N[C@H](C(=O)N1CCC[C@H]1C(N)=O)[C@@H](C)O)C(C)C)[C@@H](C)O)N(C)C(=O)[C@H](C)NC(=O)CN(C)C(=O)[C@H](Cc1ccccc1)NC(=O)[C@H](CO)NC(=O)[C@H](CO)NC(=O)[C@H](CCCNC(=N)N)NC(=O)[C@H](CCC(N)=O)NC(=O)[C@H](CC(C)C)NC(=O)[C@H](Cc1ccccc1)NC(=O)[C@H](CCCC(=O)O)NC(=O)[C@H](C)NC(=O)[C@H](CC(C)C)NC(=O)[C@H](CCCNC(=N)N)NC(=O)[C@H](CCC(=O)O)NC(=O)[C@@H](NC(=O)[C@H](C)NC(=O)[C@@H]1CSSC[C@H](NC(=O)[C@H](CCCNC(=N)N)NC(=O)CC[C@H](NC(=O)CCCCCCCCCCCCCCCCCCC(=O)O)C(=O)O)C(=O)N[C@@H](CCC(N)=O)C(=O)N[C@@H]([C@@H](C)O)C(=O)N[C@@H](C)C(=O)N[C@@H]([C@@H](C)O)C(=O)N1)[C@@H](C)O
For B1, the “hAMYR3 EC50 (nM); cAMP induction” value was found to be 0.43 nM.

B2: [19CD]-isoGlu-R-C( )-QTAT-C( )-ATDRLA-Aad-FLQRF-Gly(Me)-A-Ile(Me)-LSSTEVGSNT-Hyp-NH2 (Compd. 95) (peptide)
peptide: {C20 diacid}-[γGlu]RCQTATCATDRLA[Aad]FLQRF[Sar]A[NMeI]LSSTEVGSNT[Hyp]-NH2
modifications: disulfide 3-8
SMILES: CC[C@H](C)[C@@H](C(=O)N[C@@H](CC(C)C)C(=O)N[C@@H](CO)C(=O)N[C@@H](CO)C(=O)N[C@H](C(=O)N[C@@H](CCC(=O)O)C(=O)N[C@H](C(=O)NCC(=O)N[C@@H](CO)C(=O)N[C@@H](CC(N)=O)C(=O)N[C@H](C(=O)N1C[C@H](O)C[C@H]1C(N)=O)[C@@H](C)O)C(C)C)[C@@H](C)O)N(C)C(=O)[C@H](C)NC(=O)CN(C)C(=O)[C@H](Cc1ccccc1)NC(=O)[C@H](CCCNC(=N)N)NC(=O)[C@H](CCC(N)=O)NC(=O)[C@H](CC(C)C)NC(=O)[C@H](Cc1ccccc1)NC(=O)[C@H](CCCC(=O)O)NC(=O)[C@H](C)NC(=O)[C@H](CC(C)C)NC(=O)[C@H](CCCNC(=N)N)NC(=O)[C@H](CC(=O)O)NC(=O)[C@@H](NC(=O)[C@H](C)NC(=O)[C@@H]1CSSC[C@H](NC(=O)[C@H](CCCNC(=N)N)NC(=O)CC[C@H](NC(=O)CCCCCCCCCCCCCCCCCCC(=O)O)C(=O)O)C(=O)N[C@@H](CCC(N)=O)C(=O)N[C@@H]([C@@H](C)O)C(=O)N[C@@H](C)C(=O)N[C@@H]([C@@H](C)O)C(=O)N1)[C@@H](C)O
As to B2, the “hAMYR3 EC50 (nM); cAMP induction” value is 0.2 nM.

B3: [19CD]-isoGlu-R-C( )-QTAT-C( )-ATDRLAHFLQRSSF-Gly(Me)-A-Ile(Me)-LSSTEVGSGT-Hyp-NH2 (Compd. 91) (peptide)
peptide: {C20 diacid}-[γGlu]RCQTATCATDRLAHFLQRSSF[Sar]A[NMeI]LSSTEVGSGT[Hyp]-NH2
modifications: disulfide 3-8
SMILES: CC[C@H](C)[C@@H](C(=O)N[C@@H](CC(C)C)C(=O)N[C@@H](CO)C(=O)N[C@@H](CO)C(=O)N[C@H](C(=O)N[C@@H](CCC(=O)O)C(=O)N[C@H](C(=O)NCC(=O)N[C@@H](CO)C(=O)NCC(=O)N[C@H](C(=O)N1C[C@H](O)C[C@H]1C(N)=O)[C@@H](C)O)C(C)C)[C@@H](C)O)N(C)C(=O)[C@H](C)NC(=O)CN(C)C(=O)[C@H](Cc1ccccc1)NC(=O)[C@H](CO)NC(=O)[C@H](CO)NC(=O)[C@H](CCCNC(=N)N)NC(=O)[C@H](CCC(N)=O)NC(=O)[C@H](CC(C)C)NC(=O)[C@H](Cc1ccccc1)NC(=O)[C@H](Cc1c[nH]cn1)NC(=O)[C@H](C)NC(=O)[C@H](CC(C)C)NC(=O)[C@H](CCCNC(=N)N)NC(=O)[C@H](CC(=O)O)NC(=O)[C@@H](NC(=O)[C@H](C)NC(=O)[C@@H]1CSSC[C@H](NC(=O)[C@H](CCCNC(=N)N)NC(=O)CC[C@H](NC(=O)CCCCCCCCCCCCCCCCCCC(=O)O)C(=O)O)C(=O)N[C@@H](CCC(N)=O)C(=O)N[C@@H]([C@@H](C)O)C(=O)N[C@@H](C)C(=O)N[C@@H]([C@@H](C)O)C(=O)N1)[C@@H](C)O
B3: the “hAMYR3 EC50 (nM); cAMP induction” value worked out at 0.17 nM.

B4: [19CD]-isoGlu-R-C( )-GTAT-C( )-ATERLAHFLTRSSF-Gly(Me)-A-Ile(Me)-LSSTEVGSFT-Hyp-NH2 (Compd. 10) (peptide)
peptide: {C20 diacid}-[γGlu]RCGTATCATERLAHFLTRSSF[Sar]A[NMeI]LSSTEVGSFT[Hyp]-NH2
modifications: disulfide 3-8
SMILES: CC[C@H](C)[C@@H](C(=O)N[C@@H](CC(C)C)C(=O)N[C@@H](CO)C(=O)N[C@@H](CO)C(=O)N[C@H](C(=O)N[C@@H](CCC(=O)O)C(=O)N[C@H](C(=O)NCC(=O)N[C@@H](CO)C(=O)N[C@@H](Cc1ccccc1)C(=O)N[C@H](C(=O)N1C[C@H](O)C[C@H]1C(N)=O)[C@@H](C)O)C(C)C)[C@@H](C)O)N(C)C(=O)[C@H](C)NC(=O)CN(C)C(=O)[C@H](Cc1ccccc1)NC(=O)[C@H](CO)NC(=O)[C@H](CO)NC(=O)[C@H](CCCNC(=N)N)NC(=O)[C@@H](NC(=O)[C@H](CC(C)C)NC(=O)[C@H](Cc1ccccc1)NC(=O)[C@H](Cc1c[nH]cn1)NC(=O)[C@H](C)NC(=O)[C@H](CC(C)C)NC(=O)[C@H](CCCNC(=N)N)NC(=O)[C@H](CCC(=O)O)NC(=O)[C@@H](NC(=O)[C@H](C)NC(=O)[C@@H]1CSSC[C@H](NC(=O)[C@H](CCCNC(=N)N)NC(=O)CC[C@H](NC(=O)CCCCCCCCCCCCCCCCCCC(=O)O)C(=O)O)C(=O)NCC(=O)N[C@@H]([C@@H](C)O)C(=O)N[C@@H](C)C(=O)N[C@@H]([C@@H](C)O)C(=O)N1)[C@@H](C)O)[C@@H](C)O
Turning to B4, the “hAMYR3 EC50 (nM); cAMP induction” value amounted to 0.35 nM.

B5: [19CD]-isoGlu-R-C( )-QTAT-C( )-ATDRLAHFLQRSSF-Gly(Me)-A-Ile(Me)-LSSTEVGSNTP-NH2 (Compd. 92) (peptide)
peptide: {C20 diacid}-[γGlu]RCQTATCATDRLAHFLQRSSF[Sar]A[NMeI]LSSTEVGSNTP-NH2
modifications: disulfide 3-8
SMILES: CC[C@H](C)[C@@H](C(=O)N[C@@H](CC(C)C)C(=O)N[C@@H](CO)C(=O)N[C@@H](CO)C(=O)N[C@H](C(=O)N[C@@H](CCC(=O)O)C(=O)N[C@H](C(=O)NCC(=O)N[C@@H](CO)C(=O)N[C@@H](CC(N)=O)C(=O)N[C@H](C(=O)N1CCC[C@H]1C(N)=O)[C@@H](C)O)C(C)C)[C@@H](C)O)N(C)C(=O)[C@H](C)NC(=O)CN(C)C(=O)[C@H](Cc1ccccc1)NC(=O)[C@H](CO)NC(=O)[C@H](CO)NC(=O)[C@H](CCCNC(=N)N)NC(=O)[C@H](CCC(N)=O)NC(=O)[C@H](CC(C)C)NC(=O)[C@H](Cc1ccccc1)NC(=O)[C@H](Cc1c[nH]cn1)NC(=O)[C@H](C)NC(=O)[C@H](CC(C)C)NC(=O)[C@H](CCCNC(=N)N)NC(=O)[C@H](CC(=O)O)NC(=O)[C@@H](NC(=O)[C@H](C)NC(=O)[C@@H]1CSSC[C@H](NC(=O)[C@H](CCCNC(=N)N)NC(=O)CC[C@H](NC(=O)CCCCCCCCCCCCCCCCCCC(=O)O)C(=O)O)C(=O)N[C@@H](CCC(N)=O)C(=O)N[C@@H]([C@@H](C)O)C(=O)N[C@@H](C)C(=O)N[C@@H]([C@@H](C)O)C(=O)N1)[C@@H](C)O
As for B5, the “hAMYR3 EC50 (nM); cAMP induction” value came to 0.22 nM.

B6: [19CD]-isoGlu-R-C( )-NTAT-C( )-ATQRLADFLHRSSF-Gly(Me)-A-Ile(Me)-LSSTEVGSETP-NH2 (Compd. 1) (peptide)
peptide: {C20 diacid-γGlu}-RCNTATCATQRLADFLHRSSF[Sar]A[NMeI]LSSTEVGSETP-NH2
modifications: disulfide 2-7
SMILES: CC[C@H](C)[C@@H](C(=O)N[C@@H](CC(C)C)C(=O)N[C@@H](CO)C(=O)N[C@@H](CO)C(=O)N[C@H](C(=O)N[C@@H](CCC(=O)O)C(=O)N[C@H](C(=O)NCC(=O)N[C@@H](CO)C(=O)N[C@@H](CCC(=O)O)C(=O)N[C@H](C(=O)N1CCC[C@H]1C(N)=O)[C@@H](C)O)C(C)C)[C@@H](C)O)N(C)C(=O)[C@H](C)NC(=O)CN(C)C(=O)[C@H](Cc1ccccc1)NC(=O)[C@H](CO)NC(=O)[C@H](CO)NC(=O)[C@H](CCCNC(=N)N)NC(=O)[C@H](Cc1c[nH]cn1)NC(=O)[C@H](CC(C)C)NC(=O)[C@H](Cc1ccccc1)NC(=O)[C@H](CC(=O)O)NC(=O)[C@H](C)NC(=O)[C@H](CC(C)C)NC(=O)[C@H](CCCNC(=N)N)NC(=O)[C@H](CCC(N)=O)NC(=O)[C@@H](NC(=O)[C@H](C)NC(=O)[C@@H]1CSSC[C@H](NC(=O)[C@H](CCCNC(=N)N)NC(=O)CC[C@H](NC(=O)CCCCCCCCCCCCCCCCCCC(=O)O)C(=O)O)C(=O)N[C@@H](CC(N)=O)C(=O)N[C@@H]([C@@H](C)O)C(=O)N[C@@H](C)C(=O)N[C@@H]([C@@H](C)O)C(=O)N1)[C@@H](C)O
Turning to B6, the “hAMYR3 EC50 (nM); cAMP induction” value was found to be 0.23 nM.

B7: [19CD]-isoGlu-R-C( )-QTAT-C( )-ATERLAHFLQRF-Gly(Me)-A-Ile(Me)-LSSTEVGSNTP-NH2 (Compd. 96) (peptide)
peptide: {C20 diacid-γGlu}-RCQTATCATERLAHFLQRF[Sar]A[NMeI]LSSTEVGSNTP-NH2
modifications: disulfide 2-7
SMILES: CC[C@H](C)[C@@H](C(=O)N[C@@H](CC(C)C)C(=O)N[C@@H](CO)C(=O)N[C@@H](CO)C(=O)N[C@H](C(=O)N[C@@H](CCC(=O)O)C(=O)N[C@H](C(=O)NCC(=O)N[C@@H](CO)C(=O)N[C@@H](CC(N)=O)C(=O)N[C@H](C(=O)N1CCC[C@H]1C(N)=O)[C@@H](C)O)C(C)C)[C@@H](C)O)N(C)C(=O)[C@H](C)NC(=O)CN(C)C(=O)[C@H](Cc1ccccc1)NC(=O)[C@H](CCCNC(=N)N)NC(=O)[C@H](CCC(N)=O)NC(=O)[C@H](CC(C)C)NC(=O)[C@H](Cc1ccccc1)NC(=O)[C@H](Cc1c[nH]cn1)NC(=O)[C@H](C)NC(=O)[C@H](CC(C)C)NC(=O)[C@H](CCCNC(=N)N)NC(=O)[C@H](CCC(=O)O)NC(=O)[C@@H](NC(=O)[C@H](C)NC(=O)[C@@H]1CSSC[C@H](NC(=O)[C@H](CCCNC(=N)N)NC(=O)CC[C@H](NC(=O)CCCCCCCCCCCCCCCCCCC(=O)O)C(=O)O)C(=O)N[C@@H](CCC(N)=O)C(=O)N[C@@H]([C@@H](C)O)C(=O)N[C@@H](C)C(=O)N[C@@H]([C@@H](C)O)C(=O)N1)[C@@H](C)O
With B7, the “hAMYR3 EC50 (nM); cAMP induction” value was 0.28 nM.
